Data taken from US20110086806A1 (published 2011).

T1: recombinant human IL-23R/Fc chimera (R&D Systems) (human, UniProt Q5VWK5 24-355)
T1 construct: Bought; also called rhIL23RFc
T1 sequence (looked up): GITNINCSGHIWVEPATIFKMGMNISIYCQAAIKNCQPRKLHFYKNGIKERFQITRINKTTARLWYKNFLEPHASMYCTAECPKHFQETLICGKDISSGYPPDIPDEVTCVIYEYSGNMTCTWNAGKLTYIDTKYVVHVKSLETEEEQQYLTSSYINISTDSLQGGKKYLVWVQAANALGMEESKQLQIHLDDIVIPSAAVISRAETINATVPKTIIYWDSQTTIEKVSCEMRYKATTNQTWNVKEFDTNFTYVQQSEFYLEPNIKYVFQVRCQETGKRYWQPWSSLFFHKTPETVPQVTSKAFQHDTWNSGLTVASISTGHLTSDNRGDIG

T2: recombinant human IL-12Rβ2/Fc fusion protein (R&D Systems) (human, UniProt Q99665 24-622, limits assumed)
T2 construct: Bought; also called Il12Rb2
T2 sequence: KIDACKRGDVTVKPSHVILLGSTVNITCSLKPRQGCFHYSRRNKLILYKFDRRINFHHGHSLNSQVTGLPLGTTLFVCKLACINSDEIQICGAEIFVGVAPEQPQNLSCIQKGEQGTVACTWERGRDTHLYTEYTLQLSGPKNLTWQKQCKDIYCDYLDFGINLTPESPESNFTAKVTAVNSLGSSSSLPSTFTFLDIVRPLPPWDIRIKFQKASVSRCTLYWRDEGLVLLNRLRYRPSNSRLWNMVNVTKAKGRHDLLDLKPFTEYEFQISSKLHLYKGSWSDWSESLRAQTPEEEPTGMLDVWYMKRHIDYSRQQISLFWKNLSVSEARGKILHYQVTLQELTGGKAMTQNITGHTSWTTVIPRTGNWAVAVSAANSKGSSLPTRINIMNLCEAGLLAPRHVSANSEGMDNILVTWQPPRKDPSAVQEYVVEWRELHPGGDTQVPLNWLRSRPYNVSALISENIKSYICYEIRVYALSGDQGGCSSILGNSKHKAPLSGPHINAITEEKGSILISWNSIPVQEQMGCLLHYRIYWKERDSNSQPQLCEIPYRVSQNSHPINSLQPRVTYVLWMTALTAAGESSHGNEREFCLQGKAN


What was measured:
[1] = molecular target: T1, recombinant human IL-23R/Fc chimera …; experiment: SPR
Procedure, shortened: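 Recombinant human IL-23R/Fc captured on anti-human IgG Fc CM5 surface (<200 RU); ATRIMER complexes at 1-500 nM injected at 30 μl/min, 3 min association and 5 min dissociation. Kinetic constants fitted from double-referenced sensorgrams.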

[2] = molecular target: T1, recombinant human IL-23R/Fc chimera …; experiment: competition ELISA vs IL-23
[3] = molecular target: T3, recombinant human IL-12Rβ1/Fc fusion protein (R&D Systems) (human, UniProt P42701 24-540, limits assumed); experiment: SPR
T3 construct: Bought; also called Il12Rb1
Method: (§1) A Biacore 3000 biosensor (GE Healthcare) was used to evaluate the interaction of human IL-12Rβ1/Fc or IL-12Rβ2/Fc with IL-23R binding ATRIMER™ complexes. Immobilization of an anti-human IgG Fc antibody (GE Healthcare) to the CM5 chip (GE Healthcare) was performed using standard amine coupling chemistry, and this modified surface was used to capture recombinant human IL-12Rβ1/Fc or IL-12Rβ2/Fc fusion protein (R&D Systems). A low-density receptor surface, less than 200 RU, was used for all of the analyses. ATRIMER™ complex dilutions (100 nM) were injected over the IL-12R surface at 30 μl/min. Data collection was 3 minutes for the association and 5 minutes for dissociation. The anti-human IgG surface was regenerated with a 30s pulse of 3M magnesium chloride. All sensorgrams were double-referenced against an anti-human IgG Fc antibody surface as well as buffer injections.

[4] = molecular target: T2, recombinant human IL-12Rβ2/Fc fusion …; experiment: SPR
Method: as §1

Binder	Ka [1] [M⁻¹]	Kd [1] [nM]	koff [1] [s⁻¹]	kon [1] [M⁻¹ s⁻¹]	Ratio IC50 to 056-53.H4E IC50 [2]	binding result [3]	binding result [4]
101-51-1A4 ATRIMER complex (designed binder, Forms a homotrimer through the tetranectin coiled coil; one protomer is given., not shown: C-terminal tag: His/Myc (pANA4) or HA-StrepII (pANA10)) EPPTQKPKKIVNAKKDVVNTKMFEELKSRLDTLAQEVALLKEQQALQTVCLKGTKVHMKCFLAFTQTKTFHEASEDCISRGGTLSTPQTGSENDALYEYLRQSVGNEAEIWLGLNGSALTNTWVDMTGARIAYKNWERPALVQPRGGFGVFGENCAVLSGAANGKWFDKRCRDQLPYICQFGIV	2.58e+09	0.388	0.000395	1.02e+06	1	no binding (tested: 100 nM)	no binding (tested: 100 nM)
101-113-6C108 ATRIMER complex (designed binder, Forms a homotrimer through the tetranectin coiled coil; one protomer is given., not shown: C-terminal tag: His/Myc (pANA4) or HA-StrepII (pANA10)) EPPTQKPKKIVNAKKDVVNTKMFEELKSRLDTLAQEVALLKEQQALQTVCLKGTKVHMKCFLAFTQTKTFHEASEDCISRGGTLSTPQTGSENDALYEYLRQSVGNEAEIWLGLNGSALTNTWVDMTGARIAYKNWEPPPPHHPMGGFGVFGENCAVLSGAANGKWFDKRCRDQLPYICQFGIV	1.63e+09	0.613	0.000382	623000	0.9	no binding (tested: 100 nM)	no binding (tested: 100 nM)
H4E E137A ATRIMER complex (designed binder) EPPTQKPKKIVNAKKDVVNTKMFEELKSRLDTLAQEVALLKEQQALQTVCLKGTKVHMKCFLAFTQTKTFHEASEDCISRGGTLSTPQTGSENDALYEYLRQSVGNEAEIWLGLNGSALTNTWVDMTGARIAYKNWATEITAQPDGGFGVFGENCAVLSGAANGKWFDKRCRDQLPYICQFGIV	–	–	–	–	–	no binding (tested: 100 nM)	no binding (tested: 100 nM)
105-08-1A8 ATRIMER complex (designed binder) EPPTQKPKKIVNAKKDVVNTKMFEELKSRLDTLAQEVALLKEQQALQTVCLKGTKVHMKCFLAFTQTKTFHEASEDCISRGGTLSTPQTGSENDALYEYLRQSVGNEAEIWLGLNGSPRTNTWVDMTGARIAYKNWETEITAQPDGGFGVFGENCAVLSGAANGKWFDKRCRDQLPYICQFGIV	2.14e+09	0.467	0.000344	737000	1.6	no binding (tested: 100 nM)	no binding (tested: 100 nM)
101-54-4B6 ATRIMER complex (designed binder) EPPTQKPKKIVNAKKDVVNTKMFEELKSRLDTLAQEVALLKEQQALQTVCLKGTKVHMKCFLAFTQTKTFHEASEDCISRGGTLSTPQTGSENDALYEYLRQSVGNEAEIWLGLNGSALTNTWVDMTGARIAYKNWEPPGPHHPMGGFGVFGENCAVLSGAANGKWFDKRCRDQLPYICQFGIV	1.76e+09	0.569	0.00039	687000	0.3	no binding (tested: 100 nM)	no binding (tested: 100 nM)
101-51-1A7 ATRIMER complex (designed binder, Forms a homotrimer through the tetranectin coiled coil; one protomer is given., not shown: C-terminal tag: His/Myc (pANA4) or HA-StrepII (pANA10)) EPPTQKPKKIVNAKKDVVNTKMFEELKSRLDTLAQEVALLKEQQALQTVCLKGTKVHMKCFLAFTQTKTFHEASEDCISRGGTLSTPQTGSENDALYEYLRQSVGNEAEIWLGLNGSALTNTWVDMTGARIAYKNWERPPLYQPGGGWGVFGENCAVLSGAANGKWFDKRCRDQLPYICQFGIV	2.24e+09	0.447	0.000187	419000	1	no binding (tested: 100 nM)	no binding (tested: 100 nM)
